According to US20240391954A1, “MC4R AGONIST PEPTIDES” (The Regents of the University of Michigan, priority 2021, published 2024):
Positions of bridges follow the written chain, without caps; N, C: chain ends. Non-standard residues stand in square brackets, D forms with d. dPhe(4-Br) = N[C@H](Cc1ccc(Br)cc1)C(=O)O; d2Nal = N[C@H](Cc1ccc2ccccc2c1)C(=O)O; NMeR = CN[C@@H](CCCNC(=N)N)C(=O)O; Tic = O=C(O)[C@@H]1Cc2ccccc2CN1; dTic = O=C(O)[C@H]1Cc2ccccc2CN1; Cit = NC(=O)NCCC[C@H](N)C(=O)O

What was measured:
Assay in all cases: cell-based or functional assay
human MC3R = human MC3R (human, UniProt P41968 1-323)
human MC3R, sequence (P41968 whole entry): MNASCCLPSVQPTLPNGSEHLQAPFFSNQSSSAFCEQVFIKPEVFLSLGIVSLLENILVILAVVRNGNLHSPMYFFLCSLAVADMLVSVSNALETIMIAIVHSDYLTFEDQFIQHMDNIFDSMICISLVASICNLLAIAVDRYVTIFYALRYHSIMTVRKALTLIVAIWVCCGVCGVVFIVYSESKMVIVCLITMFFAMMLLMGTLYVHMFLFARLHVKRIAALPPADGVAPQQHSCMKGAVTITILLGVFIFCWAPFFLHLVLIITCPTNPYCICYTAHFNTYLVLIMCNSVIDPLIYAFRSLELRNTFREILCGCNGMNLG

human MC4R receptor [1] = molecular target: T1, human MC4R receptor (human, UniProt P32245 1-332)
T1 sequence (P32245 whole entry): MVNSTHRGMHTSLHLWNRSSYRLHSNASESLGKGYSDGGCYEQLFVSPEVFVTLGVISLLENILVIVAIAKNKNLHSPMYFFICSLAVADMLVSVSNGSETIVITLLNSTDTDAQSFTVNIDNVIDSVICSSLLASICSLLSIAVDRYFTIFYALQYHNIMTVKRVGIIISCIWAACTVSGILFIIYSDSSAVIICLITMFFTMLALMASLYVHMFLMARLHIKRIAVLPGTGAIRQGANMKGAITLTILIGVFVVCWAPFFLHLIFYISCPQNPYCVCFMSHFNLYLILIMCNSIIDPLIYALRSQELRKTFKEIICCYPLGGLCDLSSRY

human MC4R receptor [2] = molecular target: T1, human MC4R receptor; remark: listed apart in the source

% max activation (human MC3R) | cAMP EC50 (human MC3R) | % max activation (human MC4R receptor [1]) | cAMP EC50 (human MC4R receptor [1]) | MC4R selectivity vs MC1R (human MC4R receptor [2]) | MC4R selectivity vs MC3R (human MC4R receptor [2]) | Binder
27% | 0.146 µM | 70% | 1.25 µM | 0.01 | 0.12 | Ac-RC[dA]R[dPhe(4-Br)]R[Tic]C-NH2 (disulfide 2-8) [CTX-1259]
17% | 0.592 µM | 29% | 7.24 µM | 0.003 | 0.08 | Ac-RC[dA]R[dPhe(4-Br)]R[dTic]C-NH2 (disulfide 2-8) [CTX-1256]
13% | 0.239 µM | 38% | 4.93 µM | 0.01 | 0.05 | Ac-RC[dA]R[dPhe(4-Br)]R[dA]C-NH2 (disulfide 2-8; SMILES CC(=O)N[C@@H](CCCNC(=N)N)C(=O)N[C@H]1CSSC[C@@H](C(N)=O)NC(=O)[C@@H](C)NC(=O)[C@H](CCCNC(=N)N)NC(=O)[C@@H](Cc2ccc(Br)cc2)NC(=O)[C@H](CCCNC(=N)N)NC(=O)[C@@H](C)NC1=O) [CTX-1260]
28% | 0.0075 µM | 60% | 0.031 µM | 0.05 | 0.24 | Ac-RC[dA]R[dPhe(4-Br)]R[dF]C-NH2 (disulfide 2-8; SMILES CC(=O)N[C@@H](CCCNC(=N)N)C(=O)N[C@H]1CSSC[C@@H](C(N)=O)NC(=O)[C@@H](Cc2ccccc2)NC(=O)[C@H](CCCNC(=N)N)NC(=O)[C@@H](Cc2ccc(Br)cc2)NC(=O)[C@H](CCCNC(=N)N)NC(=O)[C@@H](C)NC1=O) [CTX-1255]
5.5% | 0.0092 µM | 22% | 0.0042 µM | 0.26 | 2.19 | Ac-RC[dA]R[dPhe(4-Br)]R[d2Nal]C-NH2 (disulfide 2-8; SMILES CC(=O)N[C@@H](CCCNC(=N)N)C(=O)N[C@H]1CSSC[C@@H](C(N)=O)NC(=O)[C@@H](Cc2ccc3ccccc3c2)NC(=O)[C@H](CCCNC(=N)N)NC(=O)[C@@H](Cc2ccc(Br)cc2)NC(=O)[C@H](CCCNC(=N)N)NC(=O)[C@@H](C)NC1=O) [CTX-1254]
30% | 0.093 µM | 31% | 0.025 µM | 0.11 | 3.73 | Ac-RC[dA]RF[NMeR][dW]C-NH2 (disulfide 2-8; not fully specified (residue 5)) [CTX-1251]
9.2% | 0.004 µM | 58% | 0.0076 µM | 0.57 | 0.53 | Ac-RC[dA]R[dPhe(4-Br)][Cit][dW]C-NH2 (disulfide 2-8; SMILES CC(=O)N[C@@H](CCCNC(=N)N)C(=O)N[C@H]1CSSC[C@@H](C(N)=O)NC(=O)[C@@H](Cc2c[nH]c3ccccc23)NC(=O)[C@H](CCCNC(N)=O)NC(=O)[C@@H](Cc2ccc(Br)cc2)NC(=O)[C@H](CCCNC(=N)N)NC(=O)[C@@H](C)NC1=O) [CTX-1253]
1.1% | 0.057 µM | 4.4% | 0.885 µM | 0.04 | 0.06 | Ac-RC[dA]R[dPhe(4-Br)][dR][dW]C-NH2 (disulfide 2-8) [CTX-1252]
